# Measurements as given in a protein production outcome set (Wang et al. 2014).
# Assay: label from the status in PepcDB records
# 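Also: failed if final PepcDB status was selected cloned or expressed and not failed if soluble or beyond.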
row,Sequence,protein production
1,MDIDLSAFHFLRPWWLLAVPLAALLWWARRGERGAPGRDLRIAPALLPYLVLRTPGSRGPRPIDALALFLALGGVAAAGPAWQRDEPAYLDNVAPLIVALDLSASMDGADVPPTRLEAARRVLRDLAARRAAARTGLIAYAGSSHLVLPPTDDAALLDLFAQALATGLIERPGRDADGAIALAAQALAAERAGGTLLILTDGADRARMDAVRRQAQAARDMQVLVMAVGVNGIDTQALQELARAAGAALGSLTGGPDDQDWIALHAQAHFRAVQDAQSGPVHWKDAGYWLCWPLALLALLAVRRGWSVAWSAGVLVVAMAGMPQPARADALADAFLTADQQGRRAFEHGRYDAAARHFHDPNWKGRAAYQAGDYRAALAAFSTLPSAEGYFYVGNTQTRLHRYDAALAAYDRALALRPGWQPAVVNRGIVARLLAAMAQTQQDQPAEPPDRTIADRSAQAGKMSQAPVAQAGSEEAWLRNLTLSPARFLRSKFAVEDAAAGTRP,failed
2,MDIEDLQTFVAVADAGGVSAAARRLGISKSIVSRRLLRVEAELGVQLLARTTRGAALTEAGITFRDHAARASAEIDTAKETILPTGELRGRLRVAMPLTFGPTHFAPVLADMARQHPQLHIHTSYSDRFVDLIAEGFDCAIRGAYLQDSNLIAKRVGPIHGKLVASPDYIKAHGSPGTLDELVTHQALMQGTEAWQFMDGDKIVTVQPQGRFKADSATALAAAAAAGLGIAWLPDCITYGYVASGALVPIMTRYPVPPGAAYVVRPPGQHPTRKVRALTEMLTEYFKRNPDVWGLDR,failed
3,MDIKEIDQSSVITPDGQRISFILITPVNMSVLSDEVVAGRISALANILTSIENLQILCLNASQSYEKNKEHLAAQMKTETNEVLAELDRKDIEYLDDIRISMATGREFAFAVRFKKNIGRPQQEQTLKRLLLILLEAGFTARIAEEQELKGILAIYFAQDIYNDYWPDFDGEEILSPAEAKQEKSFLELIAPSIIDFRRQRYYVCGNTQRTVWAVRGYPTTTKDQTIFRELGEKDGVTLHIYTRPVGSYETNKILERAERRNRHMLNNSSRIKEKVEAESNMQDVQLLIENMHRSKEPFLHCAVFIEMAAGNDKALELLQGDVAAILNRHKILYDKLFLQQKEGMISAMPTGQNLFENQFERVLPASSVANMFPFSYSGKTDPQGMYIGRDANGSNIIVNFDQRGQDKTNGHIIILGNSGEGKSFLLKILSCIFRQSRKNLYILDPENEYKELTEALGGTYMDMMTGKYIINPLEPRLWNQEPVSELESPDTPKAFFKPLRINQHIAFLRDFFSAYKPFPTEQLDTLEIMLELLYKEFHITEETDYSRLRSSDYPILTDLYKLMTRELENYEEKAETGLVVYRKETLRELCLGLHGICTGAESVYFNGYTNIPNAKHIDFGVKDMLSTNQSLSNAMYFNILSFMSHKFLTEGDTNICCDELHELLKNRIAISYLLSFIKRGRKRGSNVILASQNVSDFFLPEIVEYTKPLLSIPTHRFLFYPGSCDTEEYKRVLGVSDSEYRVIQNPNRGHCLYSCGNERYHLHVIAPKYKKALFGTAGGALEHHHHHH,failed
4,MDIKNSEYRFSPLVIGLHWLTVILIIAVYASMELRGLAPKGALRDAMKSLHYLLGLSVLVIVVIRIGVRIQAGVKPAIQPPMPRWQATLADGMHYALYSFMLAMPLLGWLTLSAAGKPIVLFGLPVPSLIGTDVALSRQLKDVHEALATLGYVLIGLHAMAALLHHYVMRDNTVVRMLPGRRP,not failed
5,MDIPQAIKYYEQACDLDGDYGCFNAAYFYEYGIGTQKDITQAKTLAKQLREKINLSNINLDKKVSERIIGSVYSNKLEAYRDLSFRPHFIQGLSFYFYAPQSDERKLLSRIGFDSSHLARIAILWAREGDPEVAYQTAKLVSTLYFNNETKTIDIAEALKWLRISAEKGDADSQTLLGFLYEHAGLGLQPDGEKARKWYEMAAQQGNGEALYTLGRMYYSGVLVNVDYDKALYFFKKAYEKKLQEAADYLAQMYFNGQSVDVDCQQSWHYYDNSYIKKMTQRDYLDYCEKDRKRRNDFNQQLPELTLEKYAGLFGRIDNIPLCQIGFVVNTNKLIHVANLRVELILKNDAGVSDERMVAFPPLGLNTLGAEQGMGDSFKSMGYLLMKNGDLCDYHKLTFTVKSATATINGKKVDLLKTDNLHIIQNR,failed
6,MDIRRIVLYMALALIGLSLWNAWQIDYPAKQPVEEKTASQLTSDGHLLPQIIPSNAEQPVTLKAEEKASSGKQLIQVKTDVLDVDIDLKNGDIVKGLLLDYPLSVEDKNKPFPLLQNQASQRYVANSSLFVLDGQTPQSLDFDFTSEKEYYELKPDQNQLIVTLNGKSEDGLDVKKEFVFTKGSYLIEVNYKIANTGNSLWKGYFNTQLLRSSPKEDKSSIFHIGSYTGASFSNPGKNRYQKVSFSDMSKSNLDVDAKGGWIAMQQHYFLSAWVPNADSENKFYTLATDKDYTIGAVSQPITVKPKEDKIVGSKLYIGPEITSVLKGISPSLDLTVDYGILWFLSSLLFSLMKAIYTVVGNWGWSIVLVTVLIKLAFYRLSATSYKSMASMRKLQPKLQALRERYGDDKAKISQATMELYKQEKVNPLGGCLPILIQIPVFIALYWVLLESVELRQAPFIFWINDLASADPYHVLPLIMGATMLIQQKLNPAPADPMQAKVMMFLPILFTGLFWNFPSGLVLYWIVNNTLSILQQWYITRKYSDEKPAKKVVATAK,failed
7,MDISGHPKTRTRTIFDEVDEPVWFCCVLPIWVGEEMASGWGITGNKGRCYDFWMDFSECMSHCREPKDCTLLREDYLECLHHSKEFQRRNRIYKEEQRKLRAASRKGEEAGDGTHNHH,failed
8,MDKAATPWLRYLEELRPHLQGRDHRGRKGSLRWLEALMAERGGRAGTVRNILYKDLGSPEEKERLYRILADLYREAGLKPPPPPAELFLKSARKVLGRDKRRIFRHFLRELEAGRRPQVVVVGGAATGKGVLLSALRQALAAFPGKTPFVLNLGGELAQALIPLAEELGVEAETLLSQLSPTQPYILQGALQQEFLAALAQALNRAGRPLLLRAEAQGTLEGLPLRGPDGGQRGLSAWLEPFLRSLEIPYLAALTEPPPTLPYQPLSPPSREEARRFVRERLPHLPPERLEALVNQAGRNFGELSRLVLLEAAKHDPETPLQDDPALRPLLEALAAFSPEADPAFPAALLERALNRPLERLSQAEKALLEWVGDGLVRPSLRSLLPQEAPRELHRLALEFFPRENLFRRLYHARKAGERRILLDLLTEDPARLALLPGLWQEARSWPKEDREALAAALVRYRAVLGQYAHPEVEEALALLAQAEDPRLRASARIKAAEAKADAGLYKEAEALLPPEEEFPLLDETARAEGLLVRAAVERWKGDYEKAARYAERAAELSVAPFLKDRVQLWRGLVAKDLGRYEEALTALAQVGHDPLLLGRARYQMGDLLMRLGSPEARARMEEGLKALEEAGAPQDEVARVRARYATLLRRLGLYPEAEAAIRRALEEALDPFTRARVESEAGILQAAQGRPLEALALLSRAEAYFRTTGERPKEARYRHLRTLFRLAAAYLLLETGTPYRPPLLGGLKAPEAERLLWDLLAKIPEEATDRYTALRLDAESLLALLLPPKEARERLRPFLGLANPYLRAQARLGYAEALLREGAYGEALAQTVALPPLLDPGLKAQAKATEVLALLALGEEEAAWQKLVEAKQSGLPEPFRLQLGRAVGRAHPGLAARLPPTPLAPPEALGLHLANPD,failed
9,MDKFSDMTMFVSIVKHQGLAAAGRELGLSPATMTARLQALEERYRVKLLNRSTRHVSLTDAGELYYKASLEILDNVNETENLILNGVKEVKGALRVAAPKDIGKQYILPILSEFCEKYPDVVPYLYLNDDVSNIAESGIDIVVRYGELADSSLISRRLSSSHRVLCASPDYLAKYGTPLTPQDLINHHCLAMVRSHEELKTWHFQGSDKKNVITVLPKRFSDDGEVVRYWALEGAGIALKSILDVQDDINNRRLVTVLNGYMANFNTSTSVSSADLNVVYMSKKYQPKRIRLFLDFLLERFETMKNGGK,not failed
10,MDKKENTVVLFPQLSERYIDEGFLALKERKFEDALRCFEILRQYNAETEQTELASVICLLELKRMEEAKDKCEQLLKTGVVLFGDILETYVTILVQTNDYEGVIETVEKVLQTKDIMPDQKEKLAQLALFAEGMLNEGDASLVDSNFELDEFTNEIFGENFGQKLRAIQRLSLKDLDLALPVLKKFLIEEEQHPYLKTSILYKMIESQVEEEIEVEKFGNTIKVIPAFTGHNEEQSNNIIHKLSSRLEQNYPDIFEAMVTYWKELQISVFPFALLMDKEEIWSAVLERIGRKRFGLAIDEEELMAAYNIELEEFHIAYQWLLRVEREGYLPV,failed
11,MDKKKHSLKAPVMTHRAFLALAIPLIFSAMTTPLIGAVDTAIVGHLQDPALIGGVAVGALIFNTMYWLFGFLRVSTSGFSAQALGRKKEDDIMLAFVRPFLLAMFVGLSFILLQHPIKSASLLIISPPEHVGLFAEQYVAIRIWGAPFALISYVVIGWLMGIGRIRGAVTIQIGTNLLNVALDFLFVYWMQWGIGGVAAASLIAEVTGAVAGCLFVLRCYSFSVFSSLTQVLDKRPILHMLTVNRDLFIRTICLLTVLTTFTSIGARFGEVSLAANAILLQLHYLMAYMFDGVANAASIVVGRSVGARDRSLFERVVRLDIVWSSVICLWLVCTLGLMKEPIIALFTSIPAVQAETLQLFGWIMLFPIAGFWGLQLHGMFSGATVARPIRQSMIIAMLVFLISCWLFVPLWGNNGLWLSFIVFTIARSMTLHLSYPALQRLFHDKERSIGA,failed
12,MDKLKVAELFAGVGGFRLGLENTKEKIFDVTWANQWEPSKKIQHAFDCYNSRFITGEHVNKDIALISDEEIANTKADMVVGGFPCQDYSVARSLSGELGIQGKKGVLFWQIIRFIQNTYPKYLLLENVDRLLKSPSSQRGRDFGVMLSTLNELGYNVEWRVINAADYGNAQRRRRVFIFGYKQDLEHHHHHH,not failed
13,MDKLKVAELFAGVGGFRLGLENTKEKIFDVTWANQWEPSKKIQHAFDCYNSRFITGEHVNKDIALISDEEIANTKADMVVGGFPCQDYSVARSLSGELGIQGKKGVLFWQIIRFIQNTYPKYLLLENVDRLLKSPSSQRGRDFGVMLSTLNELGYNVEWRVINAADYGNAQRRRRVFIFGYKQDLNYADLIDKYSLEDIVYNSGMFAKAFPIEKEPNKNRVNSSTITNDIVDISNNFSFQFYNSGIMKNGEILTIDTIPIFEKPTPLKEIVLKEVDDKYSLADEKIEKFKYLRGPKKIKRTSKDGHEYYFSEGGMSEFDSLDLPARTMLTSEASVNRSSHFLSIGGKFRTLTPIEAERLNGFPDNWTDTMPDRMRYFCMGNALVVPLVTRIGNQIEKIEKITNDDFSQLKLF,failed
14,MDKLRVPFHRPYVNLRRCSERLVMHIHILGICGTFMGSLAVLAKESGHRVTGSDANVYPPMSTQLQAQGIELTQGYDPAQLDPAPDLVVVGNALSRGNPAVEYVLNKGLPYVSGPQWLADHVLQDRWVLAVAGTHGKTTTSSMLAWVLEHAGMSPGFLIGGIPQNFAVSARLGDTPFFVVEADEYDSAFFDKRSKFVHYRPRTAILNNLEFDHADIFPDLPAIERQFHHLVRTIPSEGLVIHPTTEPALSRVIEMGCWTPVQTTGDGGQWQARLLSEDGSRFEVLFEGELQGAVEWDMTGQHNVANALATLAAARHVGVVPSLGVQALSAFKSVKRRMEKVAEVRGITIYDDFAHHPTAIATTLDGLRKKIGDAPIIAVIEPRSNSMKLGAHRDGLPESVSQADQVVWYAPPNLGWDLAATVAGGSVPSTVCDSLEAIIARVHSQVQPGTHIVIMSNGGFGGLHGKLAEALK,failed
